In general, stoichiometry N refers to the number of molecules, sites or subunits per partner or assembly.

In experiment [1] the target is wild-type H1/Cal09 HA ectodomain with the Foldon trimerization tag (influenza A virus A/California/04/2009 (H1N1) | T4). The experiment is described as follows: SEC. (Size exclusion chromatography separates by hydrodynamic size, large species first.)
Experiment [2] shares this target. The experiment is described as follows: cryo-EM 2D classification.
Experiment [3] deals with wild-type H1/Mal07 HA ectodomain with the Foldon tag (influenza A virus A/Malaysia/1706215/2007 (H1N1) | T4). Description: SEC.
Experiment [4] deals with wild-type H9/HK98 HA ectodomain with the Foldon tag (influenza A virus A/swine/Hong Kong/2106/98 (H9N2) | T4). Description: SEC.
In experiment [5] the target is wild-type ectodomain of HA from /turkey/Ontario/6118/1968 (H8N4) (influenza A virus /turkey/Ontario/6118/1968 (H8N4)). Description: SEC.
The target in experiment [6] is wild-type ectodomain of HA from A/gull/Maryland/704/1977 (H13N6) (influenza A virus A/gull/Maryland/704/1977 (H13N6)). Description: SEC.
For experiment [7], the target named is wild-type ectodomain of HA from A/swine/Hong Kong/2106/98 (H9N2) (influenza A virus A/swine/Hong Kong/2106/98 (H9N2)). The experiment is described as follows: SEC.

For the substance “wild-type H1/Cal09 HA ectodomain with the Foldon trimerization tag”, the stoichiometry N in experiment [1] and in experiment [2] was 3 throughout. In experiment [3], “wild-type H1/Mal07 HA ectodomain with the Foldon tag” had a stoichiometry N of 3. In the case of “wild-type H9/HK98 HA ectodomain with the Foldon tag”, the stoichiometry N in experiment [4] came to 3. Turning to “wild-type ectodomain of HA from /turkey/Ontario/6118/1968 (H8N4) (domain or fragment)”, in experiment [5], the stoichiometry N worked out at 3. Substance “wild-type ectodomain of HA from A/gull/Maryland/704/1977 (H13N6) (domain or fragment)” came in with a stoichiometry N in experiment [6] of 3. For “wild-type ectodomain of HA from A/swine/Hong Kong/2106/98 (H9N2) (domain or fragment)”, the stoichiometry N in experiment [7] came out at 3.
